# In the supplement of paper PMC9233669:
# Fewer inactive variants are shown than the library holds.
# Key:
# biotinyl-Phe-oxazolone = test: self-aminoacylation, catalytic enhancement (BFO) (fold over background); higher = more active; k-Seq, kA / k0A0; sequences stand for … in GGGAAUGGAUCCACAUCUACGAAUUC…UUCACUGCAGACUUGACGAAGCUG
# Method in brief: (§1)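 The uncatalyzed rate is the low-activity peak of a bimodal Gaussian fit, and catalytic enhancement is median kA divided by it. The kA values came from pseudo-first-order fits, with 1000 bootstraps, of per-sequence fraction reacted measured by streptavidin capture, triplicate qPCR and Illumina sequencing. Mutagenized RNA pools with a 21-nt variable region (0.43 μM) were reacted with each biotinyl-aminoacyl-oxazolone at 2–1250 μM in 50 μL HEPES/NaCl/KCl/MgCl2/CaCl2 buffer with 5% acetonitrile, pH 6.9–7.0, for 90 minutes at room temperature.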
# biotinyl-Ile-oxazolone = test: self-aminoacylation, catalytic enhancement (BIO) (fold over background); higher = more active; k-Seq, kA / k0A0; sequences stand for … in GGGAAUGGAUCCACAUCUACGAAUUC…UUCACUGCAGACUUGACGAAGCUG
# Method in brief: as §1
# biotinyl-Met-oxazolone = test: self-aminoacylation, catalytic enhancement (BMO) (fold over background); higher = more active; k-Seq, kA / k0A0; sequences stand for … in GGGAAUGGAUCCACAUCUACGAAUUC…UUCACUGCAGACUUGACGAAGCUG
# Method in brief: as §1
# biotinyl-Val-oxazolone = test: self-aminoacylation, catalytic enhancement (BVO) (fold over background); higher = more active; k-Seq, kA / k0A0; sequences stand for … in GGGAAUGGAUCCACAUCUACGAAUUC…UUCACUGCAGACUUGACGAAGCUG
# Method in brief: as §1
# biotinyl-Leu-oxazolone = test: self-aminoacylation, catalytic enhancement (BLO) (fold over background); higher = more active; k-Seq, kA / k0A0; sequences stand for … in GGGAAUGGAUCCACAUCUACGAAUUC…UUCACUGCAGACUUGACGAAGCUG
# Method in brief: as §1
# biotinyl-Trp-oxazolone = test: self-aminoacylation, catalytic enhancement (BWO) (fold over background); higher = more active; k-Seq, kA / k0A0; sequences stand for … in GGGAAUGGAUCCACAUCUACGAAUUC…UUCACUGCAGACUUGACGAAGCUG
# Method in brief: as §1
Sequence,self-aminoacylation (biotinyl-Phe-oxazolone),self-aminoacylation (biotinyl-Ile-oxazolone),self-aminoacylation (biotinyl-Met-oxazolone),self-aminoacylation (biotinyl-Val-oxazolone),self-aminoacylation (biotinyl-Leu-oxazolone),self-aminoacylation (biotinyl-Trp-oxazolone)
CCACACUUCGAGCAAGCGGUC [Fam1B.1 aminoacylation ribozyme variant],0.487,0.864,0.927,1.19,0.874,0.82
CUACUUCAAACAAUUAGUCUG [Fam1A.1 aminoacylation ribozyme variant],1.04,0.891,0.662,0.901,0.712,0.684
CUACUUCACACAAUCGGUCUG [Fam1A.1 aminoacylation ribozyme variant],0.869,0.775,0.685,0.811,0.694,0.689
CUACUUCACACAGUCGGUCUG [Fam1A.1 aminoacylation ribozyme variant],0.389,0.65,0.619,0.731,0.682,0.682
AUUACCGUGGUCAUAGAGUGA [Fam2.1 aminoacylation ribozyme variant],35.7,3.67,7.8,3.97,6.95,7.99
AUUCAGCUAUGUCAUCGGGUG [Fam2.2 aminoacylation ribozyme variant],16.6,2.19,3.17,2.63,3.03,3.19
CCAUACUUCAAGCACUCGGUC [Fam1B.1 aminoacylation ribozyme variant],1.11,1.01,0.904,1.07,0.962,0.69
AUUACCCUGCUCAUCGAGCGA [Fam2.1 aminoacylation ribozyme variant],0.874,1.12,1.3,0.851,1.4,0.81
AAGUUUACUAAUAGACGCAAG [Fam3.1 aminoacylation ribozyme variant],1.15,0.695,0.816,1.03,0.638,0.834
AUAACCCGGGUCAUCGAGUGA [Fam2.1 aminoacylation ribozyme variant],45.7,3.78,6.42,3.29,8.98,7.61
AUACACCAAGGUCAUCGGGUG [Fam2.2 aminoacylation ribozyme variant],42.2,4.48,4.18,3.5,6.13,6.72
CUACUUCAGACAAUCGAUCUG [Fam1A.1 aminoacylation ribozyme variant],0.994,0.669,0.542,0.634,0.477,0.493
AAGUUUGCUGAUAGGCGCAAG [Fam3.1 aminoacylation ribozyme variant],2.19,0.732,1.26,0.765,0.707,0.544
AUUACCCUGGUCGUCGCGUGA [Fam2.1 aminoacylation ribozyme variant],48.7,3.98,6.7,4.34,8.84,8.26
AUUCAACUAGGUCCUCGGGUG [Fam2.2 aminoacylation ribozyme variant],35.7,3.44,5.22,3.32,7.66,5.55
AUUCACCUAUGUCAUCGCGUG [Fam2.2 aminoacylation ribozyme variant],65.3,4.86,8.26,4.89,10.4,7.34
ACUACCCUGGUCAUGGAGUGA [Fam2.1 aminoacylation ribozyme variant],11.6,2.86,3.35,2.59,3.32,3.33
AUAACCCUCGUCAUCGAGUGA [Fam2.1 aminoacylation ribozyme variant],10.7,1.89,3.43,2.13,3.59,3.79
AUUACCCUGGUCAACCAGUGA [Fam2.1 aminoacylation ribozyme variant],39.2,3.9,6.42,3.78,6.76,7.15
AUUCACCUAGGUUCUCGGGUG [Fam2.2 aminoacylation ribozyme variant],20.4,2.63,2.88,2.68,3.18,2.44
AUUACCCGGGUCAUCGUGUGA [Fam2.1 aminoacylation ribozyme variant],39,2.6,4.88,3.17,5.65,5.65
UAGUUUGCUAAUAGUCCCAAG [Fam3.1 aminoacylation ribozyme variant],2.1,1.03,0.851,0.864,0.805,1.37
CCACACUUCAAGCACUCGGUC [Fam1B.1 aminoacylation ribozyme variant],0.887,0.855,0.777,0.996,0.757,0.733
CCAUACUUCAAGCAAUCGGUU [Fam1B.1 aminoacylation ribozyme variant],3.48,1.61,1.17,1.71,1.61,2.98
AUUCACCUAGGACAUCGGUUG [Fam2.2 aminoacylation ribozyme variant],2.89,0.888,0.919,1.03,1.28,0.663
AAGUAUGCUAAUAGUUGCAAG [Fam3.1 aminoacylation ribozyme variant],2.31,1.44,1.71,1.38,1.11,1.73

Sequence,self-aminoacylation (biotinyl-Phe-oxazolone),self-aminoacylation (biotinyl-Ile-oxazolone),self-aminoacylation (biotinyl-Met-oxazolone),self-aminoacylation (biotinyl-Val-oxazolone),self-aminoacylation (biotinyl-Leu-oxazolone),self-aminoacylation (biotinyl-Trp-oxazolone)
AAUCACCUAGGUCAACGGGUG [Fam2.2 aminoacylation ribozyme variant],10.3,2.29,2.91,2.77,3.39,3.32
ACGUUUGCUAAUACUCGCAAG [Fam3.1 aminoacylation ribozyme variant],1.88,1.12,0.968,0.9,0.909,0.897
AGUCACCUAGGUCAGCGGGUG [Fam2.2 aminoacylation ribozyme variant],39.5,4.2,4.31,3.77,5.54,5.59
AUUCACCUAGGACAUCGGAUG [Fam2.2 aminoacylation ribozyme variant],0.553,0.988,1.06,1.29,0.999,0.529
CUACUUCUAACGAUCGGUCUG [Fam1A.1 aminoacylation ribozyme variant],0.785,0.675,0.747,0.688,0.622,0.505
AUUCACCUAUGACAUCGGGUG [Fam2.2 aminoacylation ribozyme variant],22.3,2.25,3.24,1.73,3.63,3.44
CUACAUCAAACAACCGGUCUG [Fam1A.1 aminoacylation ribozyme variant],1.22,0.885,1.31,1.11,1.14,1.47
AUUACCCUGGACAUCGAGGGA [Fam2.1 aminoacylation ribozyme variant],1.26,1.53,2.18,1.19,1.46,2.17
AAGUUUGCUAAGAUUCGCAAG [Fam3.1 aminoacylation ribozyme variant],1.13,0.986,0.647,0.867,0.86,1.04
AAGUUAGCUCAUAGUCGCAAG [Fam3.1 aminoacylation ribozyme variant],3.16,1.85,1.88,1.61,2.45,1.81
AGUACCCUGGUCAUCGAGCGA [Fam2.1 aminoacylation ribozyme variant],1.16,1.94,2.19,1.9,2.28,1.89
CCACACAUCAAGCAAUCAGUC [Fam1B.1 aminoacylation ribozyme variant],1.22,0.82,0.664,0.708,0.708,0.575
CGACUUCAAACAAUCGCUCUG [Fam1A.1 aminoacylation ribozyme variant],3.61,1.42,1.36,1.24,1.42,3.07
AUGCACCUAGGUAAUCGGGUG [Fam2.2 aminoacylation ribozyme variant],10.9,2.07,2.56,1.94,2.31,3.25
UCCCACUUCAAGCAAUCGGUC [Fam1B.1 aminoacylation ribozyme variant],37,1.28,1.46,1.73,1.59,22.3
AUUACCCUGGACAUCUAGUGA [Fam2.1 aminoacylation ribozyme variant],17,2.55,5.4,2.71,5.12,5.51
AUUCACCUAGGGCAUCGGAUG [Fam2.2 aminoacylation ribozyme variant],0.411,0.923,0.506,0.873,0.894,0.646
GAGUUUGCUCAUAGUCGCAAG [Fam3.1 aminoacylation ribozyme variant],7.43,1.72,1.73,1.59,2.12,2.62
CCACACUUCAAGCAAUUGAUC [Fam1B.1 aminoacylation ribozyme variant],0.853,0.573,0.368,0.538,0.536,0.518
CCACACAUCAAGCAAUCGUUC [Fam1B.1 aminoacylation ribozyme variant],0.673,0.807,0.617,0.783,0.722,0.543
AAGUUUGCUAGUAGUCGCAGG [Fam3.1 aminoacylation ribozyme variant],2.48,0.89,1.02,0.799,0.956,1.05
CCUAACUUCAAGCAAUCGGUC [Fam1B.1 aminoacylation ribozyme variant],46.5,1.18,1.02,1.01,1.54,19.9
AUUCCCCUGGUCAUCGAGCGA [Fam2.1 aminoacylation ribozyme variant],8.04,2.14,2.63,2.17,2.75,1.53
AUUCACCUAGGUCAUCGGGAG [Fam2.2 aminoacylation ribozyme variant],1.65,1.43,1.58,1.44,1.86,1.39
CUACUUCCAACAAUCGGUCUG [Fam1A.1 aminoacylation ribozyme variant],1.11,0.766,0.722,0.768,0.702,0.831
